Values quoted from earlier work as cited in publication PMC7680388.
pKd: −log10 of the molar value.

Molecular target: Ubiquitin (Homo sapiens) (UniProt P0CG48)

Sequence of Rpn13 (Q16186 2-407): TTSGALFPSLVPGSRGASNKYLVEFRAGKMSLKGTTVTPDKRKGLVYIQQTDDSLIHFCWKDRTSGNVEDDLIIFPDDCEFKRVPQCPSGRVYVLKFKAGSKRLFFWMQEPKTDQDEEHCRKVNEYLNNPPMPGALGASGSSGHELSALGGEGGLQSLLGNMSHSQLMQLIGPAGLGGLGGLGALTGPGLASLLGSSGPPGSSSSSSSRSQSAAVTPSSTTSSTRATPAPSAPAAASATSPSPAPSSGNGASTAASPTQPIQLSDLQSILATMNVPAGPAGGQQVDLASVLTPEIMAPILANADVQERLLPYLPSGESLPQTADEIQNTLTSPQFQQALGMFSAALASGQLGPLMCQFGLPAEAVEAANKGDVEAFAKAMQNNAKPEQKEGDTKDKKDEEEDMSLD

With Rpn13 (from UniProt Q16186) as the substance, how does the pKd read?
The pKd was 4.40.
